Assay: label from the status in PepcDB records

Sequence | protein production
MKCIPYSVLLKDLEMRNLRELEDLIIEAVYTDIIQGKLDQRNQLLEVDFCIGRDIRKKDINNIVKTLHEWCDGCEAVLLGIEQQVLRANQYKENHNRTQQQVEAEVTNIKKTLKATASSSAQEMEQQLAERECPPHAEQRQPTKKMSKVKGLVSSRH | not failed
MKDETNIKTIALAIVLIAGYNVYTSQQDVKMFSLTLANIEALAMDETTQCDNANGYRRILEGDERIYDCCYLEKVGKLEHHHHHH | failed
MKDGMKQQKLVEKMTIEEKAAILSGKTVWQTREIDRLSIPSIFLSDGPHGIRKQAGTGDHLGLNASLNATCFPTAATIANSWNQNLGEEIGQALGEEAASMDVNILLGPGLNIKRSPLCGRNFEYFSEDPYLSGKMAASYIRGIQSKGVYACPKHLAVNSQELRRMAMDAVVDERTLREIYLTGFEIAVKEGHAKAIMSSYNQINGIYANEDKHLLTDILRKDWGFDGIVVTDWGGSNDHVKGVAAGSNLEMPSCGYDSAREVIAAVQNGKLKEADLDERVGELVDAVMELTSGKKLSDKNFDRNEHHQLARKAAAESMILLKNEKQILPLDTKKSIAVIGDFAFSPRYQGAGSSMVNPTKVEDMSSILQQYDLNILGMTRGYHRNGDVDENDRKFALNLSMNADIVIFCFGLDEISESEGLDRTHMRIPQDQIDLLQDISKVNENVIGILSAGSAIEMPWHTCCKAILHGYLNGQAGASATLDILTGKVNPSGRLAETYPISYEQTPAYRYYPSNEKTSEYRESVYVGYRYYDTSKVRVQYPFGFGLSYTEFTYSDLIIEEDGIKVSVTNTGDRDGAEVVQMYVGLPNAIVFRPEKELKGFAKVYLKAGESRQIRIPFDDKTFRYWNIKTGQWEIETGTYQIMVGASVADIRLTGMTERTGNSKGYPYNPAKMPYYYTGIVQKISDEEFRELLGHEIPNRRWSGNLEINDAICQMYYAKSRLARLIYRCLTKMKKKSEAQGKPDLNILFIYNMPFRGIAKMTGGAVSMEMVYGIVDAVNGHFMLGVKKIIGGYFRNRRNNKKYEKLLKGAGGKCR | failed
MKDIIITSQKIKRERNIYLICFLLSFAINIIAILVYTRPWIEIFTQLGYVLVISFFIYFILWIPRILVIGLRHLLRKKK | failed
MKDNYDAPESMLTGRVMYNGEALQLRGNEAVQLQLYQHGYAKHDPINVYVNQDGMYSANLFDGEYQMITKSGNGPWTSEGRDTINVTVAGNTVQDVEVTPYYLVRDAQMTLEGNKVNASFKVEKVAGGGIDRVFFMLSTTQFVNDAEHNVDRYDETDNLDAYDETGKLYTFATRDYTDNSMFQTALKRGTLFGRICIWPKGSDQGIYSKVIRLK | not failed
MKDSAQNFSTEKTGLKPVIRKIYDCLFDSYGPQGWWPLTELREAEGTNPTKTGSVQGYHPADYTYPQTRNQRFEIICGALLTQNTSWIQVEKALLNLKDLLSLKQINSFSPETIISLDTEILKEAIRPAGYYNQKAMRLKNLACWFLELENRIPARKELLSLKGVGPETADSILLYAFKQPSFVVDAYTKRIVTNLGLADEKAGYNEIKALFEENLPEDTTVYQEYHALLVEHAKRYYQKKSIRTNDIILKHVF | failed
MKEALKKYNLPIVFVITYVFGCVFAMLCQNTAGEVIMNLLIFALIVLVIYAIIFNYVMYSKMSFGQNFLYILFSSIIYIFGLIFVMILSAVIGDSINNSNDDFGFLLMMFGTSFTMGIFFAYLIPIVPSAIVKLLCGHEKK | failed
MKEFLNSLSYGISSHEVNNEFKQIFRELLTNHIIKEHKNKYYLNNGFAFGVLDISSKGTGFLQCFDESFKKDLLIENKNLKGANYKDIVAVKLLPLKKKRPSAKVILVLKRANETSLMITKRYGEAVLGMNIKTGLSTALKASQKSLKALPLGTILKIENENNNIIEVLGHIDDESVDEKISLALFNKNNEFSDACIKEALANGDSVDASMYENRMDLRALPFCTIDPIHAKDFDDAIYFDTQKREIYVAIADVSEYVYAYSAIDKEARNRGFSIYFPHIAIPMLPRPLSENICSLKPHLDRLAYCFKITLNHENKVIKEELFEGIINSKRRFNYDEVDEILIQKPDLKELSWLYELFEITKNLRKMRLKNAFEFRTEELRMNLDENLSLKSTVFEKDTPSHNLIEDCMLLANKAAAKLIDIGVFRNHLSADVRKIDKLLNELRELGIDVNFKPNLPELIRDIQALADELNLRAEVDKLIIKAQKKAEYSSVNAGHFGLGFDKYSHFTSPIRRYSDLILHRLLKAKQKNDEKLFNYLLLNIESTCENLSTLEREADKVAFDFMDRKFARWAAKNIGKKFKALVVQNDGVCIAKLDDEIKGADIILYDTRVNLLENVEVQIMEADIVMAKIYAKITQRLIKEENV | failed
MKEIRIILMGTGNVGLNVLRIIDASNRRRSAFSIKVVGVSDSRSYASGRNLDISSIISNKEKTGRISDRAFSGPEDLMGEAADLLVDCTPASRDGVREYSLYRMAFESGMNVVTANKSGLANKWHDIMDSANQNSKYIRYEATVAGGVPLFSVLDYSILPSKVKRFRGIVSSTINYVIRNMANGRSLRDVVDDAIKKGIAESNPQDDLNGLDAARKSVILVNHIFGTEYTLNDVEYSGVDERSYNANDRLVTEVYVDDRRPVAVSRIISLNKDDFLMSIGMDGLGYQIETDSNGTVNVSDIYDGPYETAGAVVNDILLLSKVQK | failed
MKEIRYLVRQRLPFRGHDESDESANRGNFLELVKYTVGQNEVISKVVLENAPKNNQMVFDEMSEPLIPETRDPVPSSFLLLDLILDYPVVWQQTVQSNVSDKEQMAVVFRFVDKHGTVKERFIGLIHVKETSSASLKCAIDSLFAKRGLSMKQLRGQGYDGANNMKGEFNWLRSLILRENSSAYYIHCFAHQLQLVVVAVAKKQFEVGDFFDMISALLNVVGASCKGKDRIREEYLKEIEEGINQGEIKTGKGLNQELSLQRPGNTRWGTHYTTLHRLAHLFSVIIKLLEFVEEEGTDSTKRRQANGLLKYFNTFDFAFYLQLMLLLLGLTNSLSVALQKKDQDILNPMSLVKSTKQQLCKLRDDGWDSLVNEVFSFCKKHDIELVIMDGEFVNPRNPRKRSNMTNFHHYQVECFYTILDMQIQEFNDRFDEVNTELLSCVASLSPIDSFHEFDQLKVLRLSEFYPQDFTHVDRRSLEHQLGLYIDNIREDERFAN | failed
MKEKGGDSLKYCYQCGLCDSVCPWNRVRQFSMRKIVRQGTFGLTEIEQEDIWRCSTCGTCPSRCPRGVNQIEAGVAMRRIGAEYDVLEHHHHHH | failed
MKEKVSVPFMLLGILFNVCLIAANLLETKVIQVGSITVTAGLLVFPISYIINDCIAEVWGFKKARLIIWSGFAMNFFVVALGLIAVALPAAPFWEGEQHFDFVFGMAPRIVVASLLAFLVGSFLNAYVMSKMKVASGGRNFSSRAIWSTMVGETADSLIFFPIAFGGLIAWPELLVMMGTQIVLKSLYEVIILPITIRVVKAVKRIDGSDVYDTDISYNVLKVKDI | failed
MKEKVVIITGGSSGMGKGMATRFAKEGARVVITGRTKEKLEEAKLEIEQFPGQILTVQMDVRNTDDIQKMIEQIDEKFGRIDILINNAAGNFICPAEDLSVNGWNSVINIVLNGTFYCSQAIGKYWIEKGIKGNIINMVATYAWDAGPGVIHSAAAKAGVLAMTKTLAVEWGRKYGIRVNAIAPGPIERTGGADKLWISEEMAKRTIQSVPLGRLGTPEEIAGLAYYLCSDEAAYINGTCMTMDGGQHLHQYPF | not failed
MKELAGKNLGVTTRFVLRYVFQNTIHSIWRERNERRHGEKPSRTEKIVKLIDKNIRNRLSTIRVRGEEKYAQGTQMRFASRQYQIDRTFL | failed
MKELIRKLTEAFGPSGREEEVRSIILEELEGHIDGHRIDGLGNLIVWKGSGEKKVILDAHIDEIGVVVTNVDDKGFLTIEPVGGVSPYMLLGKRIRFENGTIGVVGMEGETTEERQENVRKLSFDKLFIDIGANSREEAQKMCPIGSFGVYDSGFVEVSGKYVSKAMDDRIGCAVIVEVFKRIKPAVTLYGVFSVQEEVGLVGASVAGYGVPADEAIAIDVTDSADTPKAIKRHAMRLSGGPALKVKDRASISSKRILENLIEIAEKFDIKYQMEVLTFGGTNAMGYQRTREGIPSATVSIPTRYVHSPSEMIAPDDVEATVDLLIRYLGA | not failed
MKESNHLMDTPYSYLIRSIGMKLKTSADARLAELGLNSQQGRMIGYIYENQESGIIQKDLAQFFGRRGASITSMLQGLEKKGYIERRIPENNARQKNIYVLPKGAALVEEFNNIFLEVEESITKGLTKDEQKQLMSILIKVNRSM | not failed
MKESSTLLQNLARSLPRLNMGILLGLALLLFATLYWTLERLFDEQNSNVRLHFAQLMENIQEQELFLKRLAARHSIDALSLDAPHHLNLQAFPPTAGQQSPFATPFSLSLSPQQPAAGELPRVFALGLQLSSFYSAFWSGSQHVAPRTFVFKTFGHFDISHPEGNTAPDIGVADQVLHQQLVKSDGFADHQIHWQQYRPPASEALPTRFLAYINLHEPAPPLDVQGGNDWSVVASLLSLDDLNHLEHTRHWSIYDDFTLIEPSGTALTGDPAPADVLGEGLNFGLQGMIVKVTSQTPQLWTGLYAISYRNYLDYALWAMLSLLALGVGSIACGWAASRWYRNKVVVPAQRAQQCLNESEDFNRVVIDTVPSGLCVVSRDNLQVILQNRQAEQWQGTAQLLSRLAQDRSLIDGGETSLDIDGRYLQVEFVSTRYQRQDVLVCTFNDVTRHVEDARALDRARRSADAANAAKTLFLATMSHEIRTPLYGVLGTLELLGLTRLDSRQSDYLQTIQRSSSTLFQLISDVLDVSRIEAGQMSIDPLEFCPLDMLEDVLHAHAASAQRRGLLFYACIDPNLPDLLLGDAARISQILNNLLSNAIKFTESGRVVLRVRLLELRDQQARIEWQVTDTGIGISAQQQPQLFVPFFQVRDASNEAGAGLGLAICERLCQMMGGQMQVTSEPGLGSSFSLRLTLRCLPGGLPPLLPWPEGSPVYVRAPVPELLKNTCDWLGRLGVPAHPPPPGWSDEPQTGVLIDMLPRDGLASWPGPCVSAVSGGGSGRLPQATSWQVDAHDIRAIAQAAVLAHQGLPLYQAQHRAGRMGQLNLRILVAKHSPINQAIIKEQLQALGCQVTLSANGKQALEHWQPQRFDIVITDVNMPLMNGYELARELRRRDPQLPIIGVTANALREEGIRCLAAGMNTWIVKPMNLQTLRGHLSKLCPTSTATAAPSIPPAAPSRPPPDTAQGDRIQVTEKMRPLFLSTMHEDLRRLAEALDSGAGKIAAARLHSIAGAMGAVQAAPLAKACAELECRLLEGALTADLQAQARQLMQRLSRLLLPLE | failed
MKETTIYGRLVMAVKNTAQVVIGGKIITLGGYESEEYFQKVASYINNKIAELSEMPGYTRQPVETKHTLLSLNVTDDYFKAKKQAEIFEQDLQQKDQEMYELKHELIALRMKIEETEKNAQEAQQQKELLEGKVKELNDEIDKLLK | not failed
MKEVIHSTLAPKAIGPYSQAIATNDLVFVSGQLGIDVSTGEFKGADIHSQTTQSMENIKAILKEAGLGMDSVVKTTILLKSLDDFAVVNGIYGSYFTEPYPARATFQVAKLPKDALVEIEAIAIK | failed
MKFAIITDVHGNFDALQTVLDDIDNREDIDKIYNLGDNIGIGHETNKVLDTIFDRDDMEIIAGNHDEAVMSLVNNTPYPEDLKDKFYEHHQWIESHMDEDYYDQLNLLPRYIEKTICGKKLLFIHYEIENQKLETGIEGQPFSPITENSKENIIELFKDKDADLIAFGHNHQMHLYDDNKTIYFNPGAVGLNNGANAVYGIVTINDNEFSIERIKLPYDNEEYLQGFDEKQVPAKQLIFEHFL | failed
MKFCSQCGGEVILRIPEGDTLPRYICPKCHTIHYQNPKVIVGCIPEWENKVLLCKRAIAPYRGKWTLPAGFMENNETLVQGAARETLEEANARVEIRELYAVYSLPHISQVYMLFRAKLLDLDFFPGIESLEVRLFGEQEIPWNDIAFRVIHDPLKRYMEERHHGQPAFHLGIINKPQAGSNSNE | not failed

Source: a protein production outcome set (Wang et al. 2014)
